These results are taken from PMC6503385, “Functional characterization of BmOVOs in silkworm, Bombyx mori”.

The target in the data set is BmOVO zinc-finger domain (BmOVO-2 C-terminal) (Bombyx mori, UniProt D3YIG7 629-806). The experiment in a line: EMSA; 0.02 mg/ml protein, poly dI.dC; LightShift EMSA kit, 20 ul: 1x binding buffer, 1 ul each poly dI.dC, NP-40, KCl, glycerol; 0.75 pM probe; 20 min at room temperature; 6% polyacrylamide gel; pH. The note with it: protein: recombinant; tags: 6xHis (pET28a); label: biotin (5' on both strands as printed); blunt.
Chain of BmOVO zinc-finger domain (BmOVO-2 C-terminal) (D3YIG7 entry or part of it): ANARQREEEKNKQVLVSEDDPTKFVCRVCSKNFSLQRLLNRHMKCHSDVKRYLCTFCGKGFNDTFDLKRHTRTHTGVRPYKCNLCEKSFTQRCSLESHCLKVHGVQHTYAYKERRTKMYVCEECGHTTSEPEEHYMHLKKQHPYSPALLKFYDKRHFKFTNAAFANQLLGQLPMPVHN

B1: otu-A (CE1) (dsDNA)
DNA 1: GCCCCTAAAATGTACCGTTGTAACTTCTGT
DNA 2: ACAGAAGTTACAACGGTACATTTTAGGGGC
For the molecule B1, the binding result was “binds”.
